This passage reports normalised SPOT signal, Boehringer light units (BLU); mean over the file's lines of this peptide results from publication PMC314469, “Protein Interaction Networks by Proteome Peptide Scanning” (PLoS Biology, 2004).

B1: 160-173 subunit of the chromatin remodeling Snf/Swi complex (peptide)
chain: QEKPLTPLKYTKLI
B2: 29-42 delta-1-pyrroline-5-carboxylate dehydrogenase (peptide)
chain: RNEPVKPFRNIDLK
B3: 6-19 gamma-aminobutyrate (GABA) transaminase (4-aminobutyrate aminotransferase) (peptide)
chain: QYYPEEPTKPTVKT
B4: 14-27 Hypothetical ORF (peptide)
chain: RLIPTSPQKTNINT
B5: 874-887 Hypothetical ORF (peptide)
chain: PVGPKVPAKEPSPK
B6: 477-490 Hypothetical ORF (peptide)
chain: PPPPPPPSRKSGTP
B7: 345-358 negative regulator of early meiotic genes (peptide)
chain: PSNPALPKKLLNVP
B8: 175-188 homologous to mouse and human Tsg101 tumor susceptibility genes (peptide)
chain: QNTPPLPPKPKSPH
B9: 535-548 serine/threonine protein kinase (peptide)
chain: PLPPIPPTKSKTSP
B10: 27-40 "heat shock protein similar to HSP26, involved in cytoskeleton assembly" (peptide)
chain: QGYPRQPQRPQRYH
B11: 943-956 negative regulator of early meiotic gene expression (peptide)
chain: PPVPKAPSRRSSSL
B12: 600-613 BEM1-binding protein (peptide)
chain: QSNPTSPTKQTFTI
B13: 169-182 origin recognition complex subunit 2 (peptide)
chain: PPEPATPSKKSLTT
B14: 24-37 Hypothetical ORF (peptide)
chain: QSQPPRPPRPAANL
B15: 166-179 involved in ion homeostasis (peptide)
chain: QIFPKKPLRRTVMS
B16: 878-891 involved in bud site selection (peptide)
chain: QRHPKSPVKKPMTS
B17: 311-324 Hypothetical ORF (peptide)
chain: PLIPDNPGRLLSSK
B18: 287-300 Hypothetical ORF (peptide)
chain: QGQPLPPPRGQVIL
B19: 427-440 soluble tyrosine-specific protein phosphatase (peptide)
chain: QTSPGQPRKGQNGS
B20: 47-60 Hypothetical ORF (peptide)
chain: RGTPANPGRVATLI
B21: 87-100 35 kDa mitochondrial ribosomal small subunit protein (peptide)
chain: PLQPRPPVKPLSKQ
B22: 141-154 glucosidase I (peptide)
chain: QGEPLDPKRPSTAS
B23: 44-57 telomere binding protein (peptide)
chain: PVYPSLPERSKVIL
B24: 310-323 " meiosis-specific protein related to RecA and Rad51p. Dmc1p colocalizes with Rad51p to discrete subnuclear sites in nuc (peptide)
chain: QDSPDMPEKESVYV
B25: 482-495 Ume6p is a C6 zinc finger URS1-binding protein. (peptide)
chain: QYIPPPPPKYINSK
B26: 391-404 binds to single-stranded TG1-3 telomere G-tails (peptide)
chain: QLLPNVPDKVLVPG
B27: 82-95 ISWI One Complex (peptide)
chain: RKRPAPPKKKAPST
B28: 55-68 chitin synthase 2 (peptide)
chain: QGLPASPSRAALRY
B29: 66-79 Similar to ubiquitin conjugating protein family (peptide)
chain: PNYPDSPPKVTFIS
B30: 693-706 putative transcription factor (peptide)
chain: QLTPLLPDKYFDSA
B31: 776-789 vacuolar import degradation (peptide)
chain: RPNPTQPRKPLDSK
B32: 198-211 " RNA polymerase III (C) subunit, homologus to human BN51 protein" (peptide)
chain: QLFPVRPVRVRHED
B33: 7-20 Hypothetical ORF (peptide)
chain: RIPPTVPSKIIDVV
B34: 26-39 Component of the exocyst complex; homolog in rat brain called rExo84. (peptide)
chain: QKTPPSPAKPKQKT
B35: 100-113 transcription factor (peptide)
chain: QPAPRIPSKDAIIS
B36: 285-298 ubiquitin carboxyl-terminal hydrolase (peptide)
chain: PNEPGAPSRLSFEN
B37: 543-556 Hypothetical ORF (peptide)
chain: RAVPILPPRNNVEP
B38: 1337-1350 transcriptional regulator (peptide)
chain: PNSPTPPLKSKVSR
B39: 142-155 " transcription factor, member of ADA and SAGA, two transcriptional adaptor/HAT (histone acetyltransferase)complexes" (peptide)
chain: RERPLEPPRKPMAS

The target in the assay is Sho1 SH3 (SHO1_YEAST), P40073. Put plainly: SPOT array.
Sequence of Sho1 SH3 (SHO1_YEAST), P40073 (P40073 295-366): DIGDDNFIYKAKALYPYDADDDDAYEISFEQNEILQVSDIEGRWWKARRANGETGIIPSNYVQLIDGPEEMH
In turn, B1 came in with a normalised SPOT signal, Boehringer light units (BLU); mean over the file's lines of this peptide of 143.
To B2 belongs 87.5.
To B3 belongs 111; to B4, 85.2.
Molecule B5 showed a normalised SPOT signal, Boehringer light units (BLU); mean over the file's lines of this peptide of 5820.
As for B6, the normalised SPOT signal, Boehringer light units (BLU); mean over the file's lines of this peptide was 261.
To B7 belongs 178; to B8, 8430; to B9, 900.
In turn, B10 showed a normalised SPOT signal, Boehringer light units (BLU); mean over the file's lines of this peptide of 195.
B11 gave a normalised SPOT signal, Boehringer light units (BLU); mean over the file's lines of this peptide of 144.
For B12 the value was 39.1; for B13, 46; for B14, 128.
To B15 belongs 534; to B16, 190; to B17, 83.2.
To B18 belongs 159.
As to B19, the normalised SPOT signal, Boehringer light units (BLU); mean over the file's lines of this peptide turned out to be 61.3.
For the molecule B20, the normalised SPOT signal, Boehringer light units (BLU); mean over the file's lines of this peptide came to 123.
To B21 belongs 85.4; to B22, 124.
B23: the normalised SPOT signal, Boehringer light units (BLU); mean over the file's lines of this peptide is 210.
For B24 the value was 118; for B25, 304; for B26, 46.5.
To B27 belongs 208.
B28 showed a normalised SPOT signal, Boehringer light units (BLU); mean over the file's lines of this peptide of 140.
For B29 the value was 187; for B30, 57.6; for B31, 99.9.
As to B32, the normalised SPOT signal, Boehringer light units (BLU); mean over the file's lines of this peptide was determined as 95.2.
For B33 the value was 521; for B34, 203; for B35, 498.
To B36 belongs 85.1; to B37, 126.
For B38, the normalised SPOT signal, Boehringer light units (BLU); mean over the file's lines of this peptide was 144.
To B39 belongs 554.
